The target of assay [1] is T1, cynomolgus monkey FcγRIIIaS extracellular domain with C-terminal His-tag (cynomolgus monkey, UniProt Q8SPW2 21-206 at identity 1.00)).
T1 construct: also called cyno FcgRIIIaS; cynoFcγRIIIaS
T1 chain: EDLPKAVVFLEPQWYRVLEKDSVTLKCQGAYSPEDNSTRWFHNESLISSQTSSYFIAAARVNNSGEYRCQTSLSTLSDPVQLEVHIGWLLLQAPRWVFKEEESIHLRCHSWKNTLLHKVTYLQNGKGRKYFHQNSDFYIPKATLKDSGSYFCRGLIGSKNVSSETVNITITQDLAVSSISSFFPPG
Description: SPR (Biacore), KD of SG1 / KD of variant.

The target of assay [2] is T2, human FcγRIIaR extracellular domain with C-terminal His-tag (human, UniProt P12318 34-217).
T2 construct: also called human FcgRIIaR; FcγRIIa (type R)
T2 chain: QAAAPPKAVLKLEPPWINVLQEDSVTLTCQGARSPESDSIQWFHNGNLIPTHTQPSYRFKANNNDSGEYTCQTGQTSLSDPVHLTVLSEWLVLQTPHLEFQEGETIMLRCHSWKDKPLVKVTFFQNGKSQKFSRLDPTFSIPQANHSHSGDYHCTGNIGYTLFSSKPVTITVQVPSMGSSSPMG
Description: SPR (Biacore), antibody captured, FcgR analyte. (In general: In SPR one partner is held on a chip, and binding of the other changes the refractive index at the surface.)

In assay [3] the target is T3, human FcγRIIaH extracellular domain with C-terminal His-tag (human, UniProt P12318 34-217).
T3 construct: also called human FcgRIIaH; FcγRIIa (type H)
T3 sequence: T2 chain with R134H
In words: SPR (Biacore), KD of SG1 / KD of variant.

The target in assay [4] is T4, cynomolgus monkey FcγRIIb extracellular domain, His-tagged (cynomolgus monkey).
T4 construct: also called cyno FcγRIIb; cynoFcgRIIb
T4 chain: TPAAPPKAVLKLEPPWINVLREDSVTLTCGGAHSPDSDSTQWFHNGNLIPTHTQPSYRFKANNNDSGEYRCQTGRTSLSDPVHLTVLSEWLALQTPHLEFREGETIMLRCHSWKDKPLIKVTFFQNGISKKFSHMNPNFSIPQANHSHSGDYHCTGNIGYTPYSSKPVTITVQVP
In words: SPR (BIACORE), antibody captured, FcγR analyte, 25 C; KD of SG1 divided by KD of variant.

Assay [5] concerns the target T5, cynomolgus monkey FcγRIIIaS extracellular domain, His-tagged (cynomolgus monkey, UniProt Q8SPW2 21-206 at identity 1.00)).
T5 construct: also called cyno FcγRIIIaS; cynoFcgRIIIaS
T5 chain: T1 chain
The assay is described as above.

Assay [6] addresses T6, human FcγRIIIaV extracellular domain, His-tagged (human, UniProt P08637 17-208).
T6 construct: also called human FcγRIIIa (V158); FcgRIIIaV
The assay is described as above.

Assay [7] addresses T3, human FcγRIIaH extracellular domain …. In words: SPR (Biacore), antibody captured, FcgR analyte.
Assay [8] deals with T7, cynomolgus monkey FcγRIIa1 extracellular domain with C-terminal His-tag (cynomolgus monkey).
T7 construct: also called cyno FcγRIIa1; FcgRIIa1
T7 chain: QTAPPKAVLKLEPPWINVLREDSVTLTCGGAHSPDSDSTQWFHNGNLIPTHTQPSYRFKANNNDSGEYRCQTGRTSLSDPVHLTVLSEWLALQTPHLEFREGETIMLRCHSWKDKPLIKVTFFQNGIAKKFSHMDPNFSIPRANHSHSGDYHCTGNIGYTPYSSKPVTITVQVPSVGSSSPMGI
In words: SPR; KD of SG1 / KD of variant.

Assay [9] addresses T8, cynomolgus monkey FcγRIIa3 extracellular domain with C-terminal His-tag (cynomolgus monkey).
T8 construct: also called cyno FcγRIIa3; FcgRIIa3
T8 chain: T7 chain with P95T, T121A, A128S, H133P, D135N
Description: SPR; KD of SG1 / KD of variant.

Assay [10] concerns the target T9, cynomolgus monkey FcγRIIIaS extracellular domain with C-terminal His-tag (cynomolgus monkey, UniProt Q8SPW2 21-206 at identity 1.00)).
T9 construct: also called cyno FcγRIIIaS; FcgRIIIaS
T9 chain: T1 chain
In words: SPR; KD of SG1 / KD of variant.

Assay [11] deals with T10, human FcγRIIaR extracellular domain with C-terminal His-tag (human, UniProt P12318 34-217).
T10 construct: also called human FcγRIIa (type R); FcgRIIaR
T10 chain: T2 chain
In words: SPR; KD of SG1 / KD of variant.

Assay [12] addresses T11, human FcγRIIaH extracellular domain, His-tagged (human, UniProt P12318 34-217).
T11 construct: also called human FcγRIIa (type H); FcgRIIaH
T11 sequence: T2 chain with R134H
In words: SPR (BIACORE), antibody captured, FcγR analyte, 25 C; KD of SG1 divided by KD of variant.

Assay [13] concerns the target T12, cynomolgus monkey FcγRIIa3 extracellular domain with C-terminal His-tag (cynomolgus monkey).
T12 construct: also called cyno FcgRIIa3; cynoFcγRIIa3
T12 chain: T7 chain with P95T, T121A, A128S, H133P, D135N
Description: SPR (Biacore), KD of SG1 / KD of variant.

In assay [14] the target is T2, human FcγRIIaR extracellular domain …. In words: SPR (Biacore), KD of SG1 / KD of variant.
Assay [15] addresses T13, human FcγRIIIaV extracellular domain with C-terminal His-tag (human, UniProt P08637 17-208).
T13 construct: also called human FcgRIIIaV
In words: SPR (Biacore), KD of SG1 / KD of variant.

The target in assay [16] is T14, cynomolgus monkey FcγRIIa2 extracellular domain with C-terminal His-tag (cynomolgus monkey).
T14 construct: also called cyno FcgRIIa2; cynoFcγRIIa2
T14 chain: T7 chain with P95T, T121A, I127K, A128S, K130N, D135N, R142Q
In words: SPR (Biacore), KD of SG1 / KD of variant.

In assay [17] the target is T13, human FcγRIIIaV extracellular domain …. Description: SPR (Biacore), antibody captured, FcgR analyte.

This is an account of results in US20250076311A1 (Chugai, published 2025).

What is called Kd is the free concentration of one partner at which half of the binding sites on the other are occupied at equilibrium, for simple one-to-one binding.

Substitutions are numbered along the chain they refer to.

T13 sequence (P08637 17-208 F176V): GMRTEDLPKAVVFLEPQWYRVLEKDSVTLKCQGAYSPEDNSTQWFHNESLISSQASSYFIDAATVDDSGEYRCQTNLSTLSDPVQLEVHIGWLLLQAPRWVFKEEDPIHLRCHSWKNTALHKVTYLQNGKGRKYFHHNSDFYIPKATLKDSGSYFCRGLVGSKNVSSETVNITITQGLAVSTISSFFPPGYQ
T6 sequence (P08637 17-208 F176V): as above

B1: M103205H795-MY441/M103202L889-SK1 (antibody, human IgG1, kappa)
heavy: QVTLKESGPVLVKPTETLTLTCTVSGIDLSHDDISWVRQAPGKGLEWVGIISYAGSTYYASWAKGRLTISKDTSKNQVVLTMTNMDPVDTATYYCARGVPAYSHGGDLWGQGTLVTVSSASTKGPSVFPLAPSSKSTSGGTAALGCLVKDYFPEPVTVSWNSGALTSGVHTFPAVLQSSGLYSLSSVVTVPSSSLGTQTYICNVNHKPSNTKVDKKVEPKSCDKTHTCPPCPAAELLTGPSVFLFPPKPKDTLMISRTPEVTCVVVDVSDEDPEVKFNWYVDGVEVHNAKTKPREEQYNSTYRVVSVLTVLHQDWLNGKEYKCKVSNKALPKPIEKTISKAKGQPREPQVYTLPPSREEMTKNQVSLTCLVKGFYPSDIAVEWESNGQPENNYKTTPPVLDSDGSFFLYSKLTVDKSRWQQGNVFSCSVMHEALHNHYTQKSLSLSP
light: DIVMTQSPATLSLSPGERATLSCTSSQSVYHANWLSWFQQKPGQPPKLLIYWASTLAYGVPSRFSGSGSGTDFTLTISSLQPEDAATYYCAGGYGGGRYAFGQGTKVEIKRTVAAPSVFIFPPSDEQLKSGTASVVCLLNNFYPREAKVQWKVDNALQSGNSQESVTEQDSKDSTYSLSSTLTLSKADYEKHKVYACEVTHQGLSSPVTKSFNRGEC
notes: Substitutions in EU numbering on SG1
Take B1: the “KD fold (SG1 = 1)” value in assay [1] was 0.2 fold. In addition, binding in [2] was put at a Kd of 600 nM.

B2: M103205H795-MY460/M103202L889-SK1 (antibody)
chain 1: B1 heavy with A233E, A234P
chain 2: B1 light
For B2, in assay [1], the “KD fold (SG1 = 1)” value was determined as 0.2 fold.

B3: M103205H795-MY459/M103202L889-SK1 (antibody)
heavy: B1 heavy with A233D, A234P
light: B1 light
notes: as for B1
On to B3, for which the “KD fold (SG1 = 1)” value in assay [1] came to 0.2 fold; in assay [3], 1.6 fold.

B4: M103205H795-MY454/M103202L889-SK1 (antibody, human IgG1, kappa, name in EU numbering)
heavy: B1 heavy with A234S
light: B1 light
B4: the results for the “KD fold (SG1 = 1)” value in assay [4], in assay [5] and in assay [6] were 1.8 fold, 0.2 fold and 0.2 fold, respectively.

B5: M103205H795-MY449/M103202L889-SK1 (antibody, human IgG1, kappa)
heavy: B1 heavy with A234L
light: B1 light
notes: as for B1
For the molecule B5, the Kd in [7] worked out at 98 nM.

B6: M103205H795-MY271 (heavy chain) with M103202L889-SK1 (light chain) (antibody, human IgG1, kappa, name in EU numbering)
heavy: B1 heavy with A234P, T238V, P398K
light: B1 light
notes: Substitutions introduced into M103205H795-SG1; positions in EU numbering
As for B6, the “KD fold (SG1 = 1)” value in [8] is 4.2 fold; in [9] it was 5.5 fold; in assay [10], 0.41 fold; in assay [11], 4 fold.

B7: M103205H795-MY452/M103202L889-SK1 (antibody, human IgG1, kappa, name in EU numbering)
heavy: B1 heavy with A234Q
light: B1 light
On to B7, for which the entries for the “KD fold (SG1 = 1)” value in assay [5] and in assay [12] were 0.2 fold and 2.9 fold, respectively.

B8: M103205H795-MY273 (heavy chain) with M103202L889-SK1 (light chain) (antibody, human IgG1, kappa, name in EU numbering)
heavy: B1 heavy with A234P, T238L, P398K
light: B1 light
notes: as for B6
On to B8, for which the “KD fold (SG1 = 1)” value in [8] was found to be 0.9 fold; in assay [10] it was 0.21 fold.

B9: M103205H795-MY455/M103202L889-SK1 (antibody, human IgG1, kappa, name in EU numbering)
heavy: B1 heavy with A234T
light: B1 light
On to B9, for which the “KD fold (SG1 = 1)” value in [5] worked out at 0.2 fold; in assay [12] it was 2.7 fold.

B10: M103205H795-MY453/M103202L889-SK1 (antibody, human IgG1, kappa, name in EU numbering)
heavy: B1 heavy with A234R
light: B1 light
With B10, the “KD fold (SG1 = 1)” value in assay [4] turned out to be 0.9 fold; in [5], 0.2 fold; in assay [6] it was 0.2 fold.

B11: M103205H795-MY444/M103202L889-SK1 (antibody, human IgG1, kappa)
heavy: B1 heavy with A234F
light: B1 light
notes: as for B1
As for B11, the “KD fold (SG1 = 1)” value was determined as 8.9 fold in assay [13], 6.5 fold in assay [3], 7.5 fold in assay [14] and 0.2 fold in assay [15].

B12: M103205H795-MY466/M103202L889-SK1 (antibody)
heavy: B1 heavy with A233L, A234P
light: B1 light
notes: as for B1
B12: the “KD fold (SG1 = 1)” value was determined as 2.8 fold in [16] and 0.2 fold in [15]. The values for the Kd in assay [2] and in assay [17] were 260 nM and 4600 nM, respectively.

B13: M103205H795-MY443/M103202L889-SK1 (antibody, human IgG1, kappa)
heavy: B1 heavy with A234E
light: B1 light
notes: as for B1
In the case of B13, the “KD fold (SG1 = 1)” value was found to be 1.5 fold in [13], 0.2 fold in assay [1] and 1.5 fold in [3].

B14: M103205H795-MY449/M103202L889-SK1 (antibody, human IgG1, kappa, name in EU numbering)
heavy: B1 heavy with A234L
light: B1 light
For B14, in assay [6], the “KD fold (SG1 = 1)” value stood at 0.2 fold.

B15: M103205H795-MY457/M103202L889-SK1 (antibody, human IgG1, kappa, name in EU numbering)
heavy: B1 heavy with A234W
light: B1 light
In the case of B15, in [12], the “KD fold (SG1 = 1)” value came to 5.6 fold.
